Data taken from paper PMC5625841 (Cell, 2017).

Tests used:
[1] = molecular target: taxol-stabilized microtubules; experiment: single-molecule TIRF binding density on microtubules
cryo-EM structure = molecular target: the molecule itself; experiment: cryo-EM structure
[2] = molecular target: Dyn^WB-M, monomeric S. cerevisiae dynein construct with a Walker B mutation in AAA3 (S. cerevisiae); experiment: cryo-EM structure
[3] = molecular target: Dyn^wt-M, monomeric S. cerevisiae cytoplasmic dynein construct lacking GST, wild type AAA3 (S. cerevisiae) (UniProt P36022); experiment: cryo-EM structure
Chain of Dyn^wt-M, monomeric S. cerevisiae cytoplasmic dynein construct lacking GST, wild type AAA3 (S. cerevisiae) (P36022 whole entry): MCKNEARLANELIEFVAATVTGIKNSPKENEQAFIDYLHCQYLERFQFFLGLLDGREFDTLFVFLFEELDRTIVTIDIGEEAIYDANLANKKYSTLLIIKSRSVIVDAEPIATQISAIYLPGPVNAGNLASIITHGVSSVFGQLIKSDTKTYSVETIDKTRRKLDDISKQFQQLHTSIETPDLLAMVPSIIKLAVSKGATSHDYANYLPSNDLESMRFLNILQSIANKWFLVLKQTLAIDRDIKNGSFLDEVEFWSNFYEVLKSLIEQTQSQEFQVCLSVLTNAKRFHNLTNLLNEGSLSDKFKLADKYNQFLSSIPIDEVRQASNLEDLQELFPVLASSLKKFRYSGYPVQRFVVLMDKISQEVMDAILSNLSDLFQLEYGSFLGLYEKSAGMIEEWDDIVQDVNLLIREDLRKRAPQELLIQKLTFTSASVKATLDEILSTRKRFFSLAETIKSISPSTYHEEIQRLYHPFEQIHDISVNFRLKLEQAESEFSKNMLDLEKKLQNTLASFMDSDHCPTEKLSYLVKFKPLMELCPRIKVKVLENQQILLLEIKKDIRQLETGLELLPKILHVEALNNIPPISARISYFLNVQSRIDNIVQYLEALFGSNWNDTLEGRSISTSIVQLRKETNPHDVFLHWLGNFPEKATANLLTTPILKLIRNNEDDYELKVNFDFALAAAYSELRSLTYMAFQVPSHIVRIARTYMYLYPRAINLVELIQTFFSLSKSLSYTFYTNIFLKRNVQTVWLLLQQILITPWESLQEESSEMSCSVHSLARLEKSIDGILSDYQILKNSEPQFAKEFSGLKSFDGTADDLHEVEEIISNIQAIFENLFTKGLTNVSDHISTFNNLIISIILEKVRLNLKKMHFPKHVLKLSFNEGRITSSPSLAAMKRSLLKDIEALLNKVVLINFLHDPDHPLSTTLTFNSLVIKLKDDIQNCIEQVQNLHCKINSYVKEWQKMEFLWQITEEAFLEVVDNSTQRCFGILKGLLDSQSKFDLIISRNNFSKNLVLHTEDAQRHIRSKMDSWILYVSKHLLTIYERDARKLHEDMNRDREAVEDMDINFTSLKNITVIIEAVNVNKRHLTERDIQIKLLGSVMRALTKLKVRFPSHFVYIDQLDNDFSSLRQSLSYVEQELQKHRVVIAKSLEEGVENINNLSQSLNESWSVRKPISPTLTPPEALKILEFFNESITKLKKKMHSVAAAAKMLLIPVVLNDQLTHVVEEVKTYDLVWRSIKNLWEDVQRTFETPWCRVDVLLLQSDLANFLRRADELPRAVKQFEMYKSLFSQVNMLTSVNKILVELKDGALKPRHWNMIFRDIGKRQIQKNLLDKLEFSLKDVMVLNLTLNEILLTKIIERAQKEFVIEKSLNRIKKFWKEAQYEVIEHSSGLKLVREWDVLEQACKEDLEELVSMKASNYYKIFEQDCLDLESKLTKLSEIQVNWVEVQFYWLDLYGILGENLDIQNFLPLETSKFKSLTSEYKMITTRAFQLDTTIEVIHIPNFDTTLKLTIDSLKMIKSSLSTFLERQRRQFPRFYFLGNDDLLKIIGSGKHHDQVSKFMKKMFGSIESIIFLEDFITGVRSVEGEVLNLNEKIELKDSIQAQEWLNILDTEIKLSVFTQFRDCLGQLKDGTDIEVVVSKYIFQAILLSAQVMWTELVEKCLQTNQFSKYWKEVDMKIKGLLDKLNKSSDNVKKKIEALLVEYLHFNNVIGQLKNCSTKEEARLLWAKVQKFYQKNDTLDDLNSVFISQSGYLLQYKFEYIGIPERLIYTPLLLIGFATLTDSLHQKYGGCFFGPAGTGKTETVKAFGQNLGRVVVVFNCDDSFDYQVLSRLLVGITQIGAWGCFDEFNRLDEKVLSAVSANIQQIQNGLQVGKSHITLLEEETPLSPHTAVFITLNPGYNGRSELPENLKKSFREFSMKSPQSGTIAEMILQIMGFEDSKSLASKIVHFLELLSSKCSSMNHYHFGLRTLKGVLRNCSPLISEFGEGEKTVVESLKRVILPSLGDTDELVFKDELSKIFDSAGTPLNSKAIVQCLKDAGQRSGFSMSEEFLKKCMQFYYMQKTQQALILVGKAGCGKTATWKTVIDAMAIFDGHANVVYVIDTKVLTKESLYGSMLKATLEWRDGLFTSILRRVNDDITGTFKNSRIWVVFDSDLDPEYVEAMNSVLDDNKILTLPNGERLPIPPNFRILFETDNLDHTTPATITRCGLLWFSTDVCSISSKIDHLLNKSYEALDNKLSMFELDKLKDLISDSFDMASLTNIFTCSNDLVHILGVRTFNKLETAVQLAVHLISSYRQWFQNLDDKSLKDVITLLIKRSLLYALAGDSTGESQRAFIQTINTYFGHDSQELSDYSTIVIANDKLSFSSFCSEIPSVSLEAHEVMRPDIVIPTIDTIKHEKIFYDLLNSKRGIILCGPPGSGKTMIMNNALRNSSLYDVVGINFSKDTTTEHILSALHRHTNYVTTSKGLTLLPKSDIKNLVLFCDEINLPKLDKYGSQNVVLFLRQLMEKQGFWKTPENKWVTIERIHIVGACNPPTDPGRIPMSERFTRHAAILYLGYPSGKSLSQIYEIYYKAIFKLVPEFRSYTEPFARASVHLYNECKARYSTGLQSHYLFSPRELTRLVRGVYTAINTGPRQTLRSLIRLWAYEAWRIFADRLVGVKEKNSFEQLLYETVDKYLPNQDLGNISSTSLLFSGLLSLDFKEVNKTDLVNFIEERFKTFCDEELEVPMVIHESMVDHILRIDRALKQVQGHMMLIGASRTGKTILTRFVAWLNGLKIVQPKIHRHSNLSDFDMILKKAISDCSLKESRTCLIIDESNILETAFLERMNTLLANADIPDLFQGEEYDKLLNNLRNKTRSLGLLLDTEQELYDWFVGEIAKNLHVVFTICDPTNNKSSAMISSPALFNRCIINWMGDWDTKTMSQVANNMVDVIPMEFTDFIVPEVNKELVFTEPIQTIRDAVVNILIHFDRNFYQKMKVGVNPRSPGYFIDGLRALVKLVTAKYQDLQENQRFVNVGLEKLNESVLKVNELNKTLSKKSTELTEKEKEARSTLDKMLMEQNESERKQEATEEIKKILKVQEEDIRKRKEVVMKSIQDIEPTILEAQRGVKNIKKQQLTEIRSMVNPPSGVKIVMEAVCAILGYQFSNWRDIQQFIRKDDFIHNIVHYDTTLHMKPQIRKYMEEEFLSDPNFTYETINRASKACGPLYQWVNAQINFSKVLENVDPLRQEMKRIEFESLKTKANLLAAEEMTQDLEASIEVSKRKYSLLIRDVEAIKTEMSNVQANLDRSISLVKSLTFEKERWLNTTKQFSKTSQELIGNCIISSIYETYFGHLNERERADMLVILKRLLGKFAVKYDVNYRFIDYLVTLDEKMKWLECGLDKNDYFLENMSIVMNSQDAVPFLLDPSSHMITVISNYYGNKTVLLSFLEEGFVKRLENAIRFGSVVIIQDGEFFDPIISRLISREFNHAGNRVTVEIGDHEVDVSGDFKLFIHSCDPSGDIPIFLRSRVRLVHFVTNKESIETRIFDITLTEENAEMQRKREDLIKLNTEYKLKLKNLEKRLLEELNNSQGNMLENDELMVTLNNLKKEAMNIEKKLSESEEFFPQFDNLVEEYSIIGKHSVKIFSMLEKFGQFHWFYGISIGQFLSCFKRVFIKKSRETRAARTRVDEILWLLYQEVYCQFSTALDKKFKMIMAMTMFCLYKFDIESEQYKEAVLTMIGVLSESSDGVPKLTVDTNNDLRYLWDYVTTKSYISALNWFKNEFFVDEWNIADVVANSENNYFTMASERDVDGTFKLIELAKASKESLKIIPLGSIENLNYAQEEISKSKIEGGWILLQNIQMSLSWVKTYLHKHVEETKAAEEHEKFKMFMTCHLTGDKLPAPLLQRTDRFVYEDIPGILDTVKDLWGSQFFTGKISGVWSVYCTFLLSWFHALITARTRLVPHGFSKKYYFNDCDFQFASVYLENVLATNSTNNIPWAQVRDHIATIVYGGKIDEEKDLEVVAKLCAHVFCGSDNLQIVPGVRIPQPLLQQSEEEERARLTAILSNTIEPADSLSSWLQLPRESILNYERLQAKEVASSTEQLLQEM

Molecule: Dyn^WA, GST-dimerized S. cerevisiae dynein construct with a Walker A mutation in AAA3 (domain or fragment)
- increase of binding density on MTs with 300 nM Lis1 against no Lis1 [1]: 62%

Molecule: Dyn^WB, GST-dimerized S. cerevisiae dynein construct with a Walker B mutation in AAA3 (domain or fragment)
- decrease of binding density on MTs with 300 nM Lis1 against no Lis1 [1]: 42%

B1: Lis1 (S. cerevisiae), dimer (natural protein, UniProt P39946 1-494, looked up)
chain: MTNWQQQLPLTDTQKNELDKSVLRYLNWNYKQTVRHEHAQDYESVRHAIVTLSGFLLQESVDRQEFISNNDTSNESMVDIDELLLPKKWNSIVRLQKKIIELEQNTETLVSQIKDLNTQVSELAQFKPTTSNGTSAHNVLKWIPRNLPSCLINVESSVTSVKLHPNLPIVFVATDHGKLYAFDLFNYTIPLASLQSHTKAITSMDVLFTNYTNSSKKNYLVIVTASKDLQIHVFKWVSEECKFQQIRSLLGHEHIVSAVKIWQKNNDVHIASCSRDQTVKIWDFHNGWSLKTFQPHSQWVRSIDVLGDYIISGSHDTTLRLTHWPSGNGLSVGTGHEFPIEKVKFIHFIEDSPEIRFRTPSTDRYKNWGMQYCVSASRDRTIKIWEIPLPTLMAHRAPIPNPTDSNFRCVLTLKGHLSWVRDISIRGQYLFSCADDKSVRCWDLNTGQCLHVWEKLHTGFVNCLDLDVDFDSNVTPRQMMVTGGLDCKSNVFMR
- binding result (cryo-EM structure): binds
- stoichiometry N (Lis1 β-propellers per dynein) [2]: 2
- stoichiometry N (Lis1 β-propeller per dynein) [3]: 1
